# B1: SUMO-1K37-48R: SUMO-1 mutant with lysines K37-K39 and K45, K46 and K48 substituted with arginine (protein, UniProt P63165 2-97, looked up, variant K37R K39R K45R K46R K48R)
# Small ubiquitin-related …: SDQEAKPSTEDLGDKKEGEYIKLKVIGQDSSEIHFRVRMTTHLRRLRESYCQRQGVPMNSLRFLFEGQRIADNHTPKELGMEEEDVIEVYQEQTGG
# Tested on: H1299 cells
# Experiment: Cell cycle analysis by flow cytometry
# Type: cell-based, human
# Details: H1299 cells infected with adenovirus expressing p53, 72 hours after infection
# Procedure: FIG. 5. […] 72 hours after infection, cells were harvested and their cell cycle profile was analyzed (see materials and methods). B-C.
# Flow cytometry was performed as described previously by Knights, C. D., et al. J. Cell Biol. 173(4):533-544 (2006).
molecule,measurement,value
B1,apoptotic cells,~2%

# From patent publication US20130288275A1, “COMPOSITIONS AND METHODS FOR DETECTING ACETYLATED SUMO PROTEINS” (Georgetown University, priority 2010, published 2013)
